Data set [1] has as its target T1, PglC from H. pullorum (PglC (H. pu)) (Helicobacter pullorum, UniProt E1B268).
T1 construct: N-terminal His6-SUMO tag, tag cleavage not mentioned; E. coli BL21-RIL; DDM-solubilized membrane fraction, Ni-NTA
Description: UMP-Glo luminescence (UMP release), time course. Type of data set: biochemical. The conditions noted are these: 20 μM UDP-GlcNAc; 20 μM Und-P; 0.3 μM enzyme; 5 mM MgCl2; pH 7.5; 0.1% Triton X-100; 10% DMSO.

The subject of data set [2] is CC(C)=CCC/C(C)=C/CC/C(C)=C/CC/C(C)=C\CC/C(C)=C\CC/C(C)=C\CC/C(C)=C\CC/C(C)=C\CC/C(C)=C\CC/C(C)=C\CC/C(C)=C\COP(=O)(O)O. Description: purified protein. The note with it: 80 μM UDP-diNAcBac, 5 mM MgCl2, pH 7.5, room temperature, 0.1% Triton X-100, 10% DMSO.
Data set [3] relates to CC(=O)N[C@H]1[C@@H](OP(=O)(O)OP(=O)(O)OC[C@H]2O[C@@H](n3ccc(=O)[nH]c3=O)[C@H](O)[C@@H]2O)O[C@H](C)[C@@H](NC(C)=O)[C@@H]1O. Description: purified protein. The conditions noted are these: 60 μM Und-P, 5 mM MgCl2, pH 7.5, room temperature, 0.1% Triton X-100, 10% DMSO.

Data on three compounds can be found in article PMC5022061, “A Rapid and Efficient Luminescence-based Method for Assaying Phosphoglycosyltransferase Enzymes” (Scientific Reports, 2016).

T1 sequence (E1B268 entry or part of it): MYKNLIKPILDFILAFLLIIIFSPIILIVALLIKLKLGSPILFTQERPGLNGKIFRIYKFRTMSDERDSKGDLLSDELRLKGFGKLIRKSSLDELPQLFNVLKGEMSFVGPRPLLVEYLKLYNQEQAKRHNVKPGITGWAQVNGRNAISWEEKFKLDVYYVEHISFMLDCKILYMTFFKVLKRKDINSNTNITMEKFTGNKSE

Regarding `CC(=O)N[C@H]1[C@@H](OP(=O)(O)OP(=O)(O)OC[C@H]2O[C@@H](n3ccc(=O)[nH]c3=O)[C@H](O)[C@@H]2O)O[C@H](CO)[C@@H](O)[C@@H]1O` [UDP-GlcNAc], the “UMP-Glo luminescence (UMP release), time course” value in data set [1] was “demonstrates that the H. pullorum PglC catalyzes turnover of these substrates”.
As for “PglC from Campylobacter jejuni (SUMO-PglC) (Campylobacter jejuni subsp. jejuni NCTC 11168 = ATCC 700819)”, in data set [2], the Km (in general, the concentration of substrate that gives half-maximal velocity) was 7.18 ± 1.37 µM and the kcat – broadly, the maximal rate divided by the concentration of active sites – amounted to 5.17 ± 0.333 s⁻¹. Also, in data set [3], the Km is 24.61 ± 3.30 µM and the kcat is 5.67 ± 0.333 s⁻¹.
Turning to `CC(C)=CCC/C(C)=C/CC/C(C)=C/CC/C(C)=C\CC/C(C)=C\CC/C(C)=C\CC/C(C)=C\CC/C(C)=C\CC/C(C)=C\CC/C(C)=C\CC/C(C)=C\COP(=O)(O)O` [Und-P], the “UMP-Glo luminescence (UMP release), time course” value in data set [1] is “demonstrates that the H. pullorum PglC catalyzes turnover of these substrates”.
